From the supplement of paper PMC10567573

B1: C1orf137 (parent)
chain: LPQETNLTLKVCKPQAPQKLDPTL

Variants of: B1
Test: protein stability index of a GFP-peptide fusion (GPS, HEK-293T) (PSI 1-6); higher = more stable
Conditions: c terminus: a fixed tail appended
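Further: lentivirally expressed fusions sorted by FACS into six bins by GFP to DsRed ratio, PSI derived from sequencing read proportions per bin multiplied by bin number.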

Protein stability index: each site, then its substitutions
P17: C 3.51; I 4; Q 4.36; K 4.13; A 3.97; T 3.81; L 3.07; W 2.3; E 4.27; Y 3.57; H 3.58; N 3.21; S 3.62; G 3.74; R 3.17; D 4.52; V 3.95; M 3.68; F 3.03
C12: M 4.07; L 4.06; G 4.81; R 4.14; N 4.31; S 4.07; A 5.06; Q 4.1; T 4.62; K 4.43; I 3.9; H 4.66; P 4.73; E 4.39; Y 3.64; W 4.28; V 3.65; F 3.7; D 4.79
D21: V 2.87; N 3.17; W 2.36; H 2.86; F 2.66; S 3.85; E 3.98; P 3.35; A 2.65; L 2.44; Y 2.73; I 2.74; Q 3.19; G 3.3; R 3.19; T 3.7; M 2.86; C 3.05; K 3.77
K10: Y 2.98; I 2.13; M 2.95; H 3.48; A 4.61; G 3.78; E 4.5; T 3.46; C 3.66; L 2.55; D 4.56; V 2.7; W 2.17; P 4.17; Q 3.65; N 4.37; F 2.18; S 4.01; R 3.03
T8: P 4.53; D 3.21; L 3.95; K 3.57; H 3.88; I 2.37; N 4.11; Q 4.21; V 2.92; W 2.64; A 4.3; G 4.55; Y 2.98; C 4.15; S 4.3; M 3.69; F 2.9; R 3.57; E 4.14
T5: C 2.99; P 4.59; N 3.69; E 4.2; K 3.64; H 4; R 3.6; V 3.04; G 3.75; Y 2.88; L 2.69; S 3.9; F 2.77; D 4.38; Q 4.33; I 2.6; A 4.02; M 3.58
Q18: C 3.79; Y 3.13; R 3.8; M 3.28; H 3.69; E 3.23; F 2.39; V 3.56; D 4.59; L 3.31; K 3.97; P 3.75; N 3.52; I 3.92; S 3.58; T 3.82; G 3.59; A 4.65
A16: F 2.92; E 4.45; I 3.56; C 3.6; V 3.94; S 4.02; R 3.58; M 3.54; G 3.98; D 4.41; Y 3.38; H 4.14; P 3.62; Q 3.96; N 4.04; K 4.15; W 2.02; T 4.07; L 3.69
E4: Y 2.98
P14: Q 4.41; M 3.08; H 4.07; R 4.27; C 3.02; V 3.55; Y 3.37; D 4.76; I 2.76; S 4.27; W 3.47; N 4.72; F 2.71; T 4.16; K 4.1; A 3.59; L 2.81; G 4.55; E 4.71
V11: G 3.42; F 3.22; L 3.55; I 3.24; D 4.91; N 4.21; M 3.77; W 2.44; E 5.09; K 3.65; T 3.66; Q 3.32; H 4.08; P 4.54; R 3.05; A 4.12; C 3.96; Y 3.82; S 4.19
P22: N 3.38; H 3.13; G 3.39; K 4; F 2.35; S 2.87; C 2.95; I 2.08; L 2.93; R 3.84; E 4.13; M 2.98; D 4.38; A 3.16; Q 4.25
Q15: R 3.69; T 4.08; V 3.65; K 3.69; F 2.69; L 2.96; A 3.91; W 3.5; N 4.04; Y 2.64; G 3.93; D 4.49; E 4.41; H 3.65; C 3.58; S 3.86; I 3.03; M 3.28
K13: Y 3.5; I 2.33; T 4.06; L 2.96; A 3.98; D 4.88; N 4.03; S 4.14; V 3.42; E 4.69; M 3.05; H 3.56; Q 4.14; R 3.01; P 4.43; C 3.24; F 2.11; G 4.33; W 2.25
L20: Q 4.47; M 4.13; R 4.42; T 4.5; G 4.91; N 4.29; A 4.75; F 3.31; S 4.34; K 4.9; D 4.98; E 5.09; W 3.51; V 4.03; Y 4.46; H 4.43; P 4.48; I 3.42; C 4.18
N6: D 4.38; G 4.6; Q 3.94; T 3.71; L 3.57; F 3.36; E 4.15; H 4.23; C 3.3; R 3.31; I 2.42; S 3.56; A 3.88; M 3.22; K 3.27; V 3.29; W 3.2; Y 2.99
L9: F 4.05; V 4.14; G 4.32; T 4.67; R 4.58; H 3.78; M 4.03; C 3.91; Q 4.59; N 4.54; I 4; E 4.76; K 4.16; A 4.14; S 3.63; P 3.69; D 4.92; W 3.15; Y 4.35
K19: G 3.5; D 3.92; M 3.53; I 2.54; A 3.8; N 3.56; V 4.06; R 3.55; Y 3.36; P 3.96; E 3.77; C 2.92; H 3.78; Q 3.85; L 3.01; T 4.06; S 3.72; F 2.96; W 2.36
L7: G 4.48; K 4.61; C 3.53; S 4.35; Y 3.89; Q 4.56; F 2.92; I 3.4; H 4.51; T 4.33; V 4.21; E 4.79; R 4.67; M 4.25; D 4.94; A 4.25; P 4.42; N 4.66
